Reference: PMC10526274, “Epithelial-Immune Cell Crosstalk Determines the Activation of Immune Cells In Vitro by the Human Cathelicidin LL-37 at Low Physiological Concentrations” (Biomolecules, 2023)

System: Caco-2 polarized monolayer
Assay: Bidirectional transport of FITC-LL-37 through the Caco-2 epithelial monolayer
Assay type: in vitro ADME, human
Experimental: Caco-2 cell line (ATCC HTB-37) was cultured in a humidified CO2-incubator (5% CO2, 37 °C) in the complete DMEM/F12 (1:1) medium (Gibco, Waltham, MA, USA) containing 10% fetal bovine serum (FBS, Gibco) and 1X antibiotic–antimycotic solution (Gibco). To stabilize the cell phenotype, Caco-2 cells have been subcultivated three times before seeding on the filter supports. Then, Caco-2 cells were seeded at a density of 2 × 10^5 cells/cm^2 onto 24-well Millicell cell culture inserts (PC, 0.4-μm pore size, 0.6 cm^2 surface area, cat. #PIHP01250) (Millipore, Burlington, MA, USA), precoated with 0.2% bovine gelatin (Sigma-Aldrich, Saint Louis, MO, USA). After seeding, Caco-2 cells were grown in the same complete medium with re-feeding every 2–3 days until polarization of the monolayer occurred. The functional polarity of the monolayers was developed when transepithelial electrical resistance (TEER) between the apical and basolateral surfaces of the monolayers reached […] as measured by the electrical resistance system Millicell-ERS Voltohmmeter (Millipore, Burlington, MA, USA). Grown cell monolayers were used in transport and cytokine production experiments between the 21st and 29th days.
LL-37 was labeled with fluorescein isothiocyanate isomer I (FITC) (Sigma-Aldrich). For coupling with FITC, 0.5 mg of LL-37 in 50 µL of DMSO was first mixed with 200 µL of the carbonate–bicarbonate coupling buffer (0.1 M sodium carbonate, 0.1 M sodium bicarbonate, pH 10.4). Then, 4 mg of FITC in 200 µL of DMSO was added to the solution, and the resultant mixture was incubated in the dark at room temperature (20–22 °C) for 2 h. FITC-LL-37 was purified by using a PD10 gel-filtration column (GE Healthcare, Chicago, IL, USA) pre-equilibrated with PBS.
The penetration capability of FITC-LL-37 was investigated using Caco-2 cells as an in vitro model of the intestinal epithelial barrier, grown on permeable Millicell cell culture inserts. Transport of the compound from both sides of the monolayer was determined in the transport buffer (Hank’s balanced salt solution, containing 25 mM HEPES, 1 mM MgCl2, 1 mM CaCl2, and 10 mM D(+)glucose, pH 7.4). […]
Transfer of LL-37 through Caco-2 monolayers under steady-state conditions was evaluated mathematically for each direction and each insert by the apparent permeability coefficient (Papp), calculated according to the following Equation (1): Papp = ΔC/Δt × (V/(A × Ci))(1) where ΔC/Δt is the solute flux (nM/s) across the barrier, V is the volume of the acceptor chamber, A is the effective filter area of the well (cm^2), and Ci is the initial concentration of the donor solution (nM). […]

LL-37: the only human cathelicidin, host defense antimicrobial peptide of 37 a.a. residues, produced by solid-phase peptide synthesis
Apparent permeability (Papp) B → A (secretory) (Caco-2 (ATCC HTB-37) on Millicell PC inserts, day 21-29, TEER 400, basolateral-to-apical, FITC-labeled LL-37, 5 µM donor, HBSS, 25 mM HEPES, pH 7.4 both sides, 37 °C, 90 min, range over 4 independent inserts): 1.7–2.1 × 10^−6 cm/s | Uptake ratio (UR) = Papp(A → B)/Papp(B → A) (Caco-2, FITC-labeled LL-37 5 µM, pH 7.4, 90 min): 0.51 | Efflux ratio (ER) = Papp(B → A)/Papp(A → B) (Caco-2, FITC-labeled LL-37 5 µM, pH 7.4, 90 min, no inhibitor): 1.95 | Predicted absorption in the human gut (predicted from Caco-2 Papp A → B by the classification of ref 20): 0–20%
